# B1: YU100-G10 (scFv)
# scFv: QVQLVQSGGGVVQPGRSLRLSCAASGFTFSSYGMHWVRQAPGKGLEWVAVISYDGSNKYYADSVKGRFTISRDNSKNTLYLQMNSLRAEDTAVYYCAKIGATDPLDYWGQGTLVTVSSGSASAPKLEEGEFSEARVQSALTQPASVSGSLGQSITMSCTGTRRDVGGYDFVSWYQQYPGKAPKLIIYDVSNRPSGVSNRFTGSKSGNTASLTISGLQAEDEADYYCCSYAGTYTWVFGGGTKVTVL
# B2: YU112-F05 (scFv)
# scFv: EVQLVQSGGGVVQPGRSLRLSCAASGFTFGSYGMHWVRQAPGKGLEWVAVISYDGSNKYYADSVKGRFTISRDNSKNTLYLQMNSLRAEDTAVYYCAKIGATDPLDYWGQGTLVTVSSGSASAPKLEEGEFSEARVQSALTQPRSVSGSPGQSVTISCTGTSSDVGGYNYVSWYQQHPGKAPKLIIYDVNNRPSGVSNRFSASKSGNTASLTISGLQAEDEADYYCNSYTSGSTWVFGGGTKLTVL
# B3: YU100-F01 (scFv)
# scFv: QVQLVQSGGGVVQPGRSLRLSCAASGFTFSSYGMHWVRQAPGKGLEWVAVISYDGSNKYYADSVKGRFTISRDNSKNTLYLQMNSLRAEDTAVYYCAKIGATDPLDYWGQGTLVTVSSGSASAPKLEEGEFSEARVQSALTQPASVSGSPGQSITISCTGTGSDVGAYDYVSWYQQHPGKAPKLMIYDVNNRPSGVSNRFSGSKSGNTASLTISGLQAEDEAEYYCSSFATSISWVFGGGTRLTVL
# B4: YU112-C03 (scFv, not shown: a dimerising Fc or GST)
# scFv: QVQLVESGGGVVQPGRSLRLSCAASGFTFSSYGMHWVRQAPGKGLEWVAVISYDGSNKYYADSVKGRFTISRDNSKNTLYLQMNSLRAEDTAVYYCAKGGKSYYGFDYWGQGTLVTVSSGSASAPKLEEGEFSEARVDSVMTQSPSSLSASVGDRVTITCRASQAINSYLNWYQQKPGKAPKLLIYAASSLQSGVPSRFSGSGSGTDFTLTISGLQPEDFATYYCQQSYSTPSWTFGQGTKVEIK
# B5: YU112-B06 (scFv, not shown: a dimerising Fc or GST)
# scFv: QVQLVESGGGVVQPGRSLRLSCAASGFTFSSYGMHWVRQAPGKGLEWVAVISYDGSNKYYADSVKGRFTISRDNSKNTLYLQMNSLRAEDTAVYYCAKIGATDPLDYWGQGTLVTVSSGSASAPKLEEGEFSEARVQSALTQPASVSGSPGQSITISCTGTSSDVGGYNYVSWYQQHPGKAPKLMIYDVSNRPSGVSNRFSGSKSGNTASLTIFGLQAEDEADYYCSSYTSSSSWVFGGGTKLTVL
# B6: YU100-G07 (scFv)
# scFv: QVQLVESGGGVVQPGRSLRLSCAASGFTFSSYGMHWVRQAPGKGLEWVAVISYDGSNKYYADSVKGRFTISRDNSKNTLYLQMNSLRAEDTAVYYCAKIGATDPLDYWGQGTLVTVSSGSASAPKLEEGEFSEARVQSALTQPASVSGSPGQSITISCTGTSSDVGAYDYVSWYQQHPGKAPKLMIYDVTNRPSGVSNRFSGSKSGNTASLTISGLQAEDEADYYCASYTRSSVWVFGGGTKLTVL
# B7: YU112-D08 (scFv)
# scFv: QVQLVESGGGVVQPGRSLRLSCAASGFTFSSYGMHWVRQAPGKGLEWVAVISYDGSNKYYADSVEGRFTISRDNSKNTLYLQMNSLRAEDTAVYYCAKIGATDPLDYWGQGTLVTVSSGSASAPKLEEGEFSEARVQSALTQPRSVSGSPGQSVTISCTGTISDVGGYNYVSWYQQHPGKAPKLMIYDVTKRPSGVPDRFSGSKSGNTASLTISGLQAEDEAGYYCSSYAGSYTWVFGGGTELTVL
# B8: YU112-G06 (scFv)
# scFv: QVQLQESGGGVVQPGRSLRLSCAASGFTFSSYGMHWVRQAPGKGLEWVAVISYDGSNKYYADSVKGRFTISRDNSKNTLYLQMNSLRAEDTAVYYCAKIGATDPLDYWGQGTLVTVSSGSASAPKLEEGEFSEARVQSALTQPRSVSGSPGQSVTISCTGTISDVGGYNYVSWYQQHPGKAPKLMIYDVTKRRSGVPDRFSGSKSGNTASLTISGLQAEDEAGYYCSSYAGGYTWVFGGGTELTVL
# B9: YU100-E11 (scFv)
# scFv: QVQLVESGGGVVQPGRSLRLSCAASGFTFSSYGMHWVRQAPGKGLEWVAVISYDGSNKYYADSVKGRFTISRDNSKNTLYLQMNSLRAEDTAVYYCARIMGYDYGDYDVVDYWGQGTLVTVSSGSASAPKLEEGEFSEARVQSALTQPRSVSGSPGQSVTISCTGTSSDVGGYNYVSWYQQHPGKAPKLMIYDVSKRPSGVPDRFSGSKSGNTASLTISGLQAEDEADYYCCSYAGSYTWVFGGGTKLTVL
# B10: YU100-H09 (scFv, not shown: a dimerising Fc or GST)
# scFv: QVQLVQSGGGVVQPGRSLRLSCAASGFTFSSYAMHWVRQAPGKGLEWVAVISYDGSNKYYADSVKGRFTISRDNSKNTLYLQMNSLRAEDTAVYYCARIMGYDYGDYDVVDYWGQGTLVTVSSGSASAPKLEEGEFSEARVQSALTQPASVSGSPGQSITISCTGTSSDVGGYNYVSWYQQHPGKAPKLMIYDVSNRPSGVSNRFSGSKSGNTASLTISGLQAEDEADYYCCSYAGSYTWVFGGGTKLTVL
# B11: YU100-H02 (scFv)
# scFv: QVQLQQSGGGVVQPGRSLRLSCAASGFTFSSYGMHWVRQAPGKGLEWVAVISYDGSNKYYADSVKGRFTISRDNSKNTLYLQMNSLRAEDTAVYYCARIMGYDYGDYDVVDYWGQGTLVTVSSGSASAPKLEEGEFSEARVQSALTQPRSVSRSPGQSVTISCTGTSSDVGTYNYVSWYQQHPGKAPKLMIYDVSKRPSGVPDRFSGSKSGNTASLTISGLQAEDEADYYCCSYAGFYTWVFGGGTKLTVL
# B12: YU100-E09 (scFv)
# scFv: QVQLVESGGGVVQPGRSLRLSCAASGFTFSSYAMHWVRQAPGKGLEWVAVISYDGSNKYYADSVKGRFTISRDNSKNTLYLQMNSLRAEDTAVYYCARIMGYDYGDYDVVDYWGQGTLVTVSSGSASAPKLEEGEFSEARVQSALTQPRSVSGSPGQSVTISCTGTSSDVGDYDYVSWYQQHPGKAPKLIIYDVTKRPSGIPDRFSGSKSGNTASLTISGLQAEDEADYYCCSYAGSYTWVFGRGTKLTVL
# B13: YU112-C05 (scFv, not shown: a dimerising Fc or GST)
# scFv: EVQLVESGGGVVQPGRSLRLSCAASGFTFSSYAMHWVRQAPGKGLEWVAVISYDGSNKYYADSVKGRFTISRDNSKNTLYLQMNSLRAEDTAVYYCARIMGYDYGDYDVVDYWGQGTLVTVSSGSASAPKLEEGEFSEARVQSALTQPRSVSGSPGQSVTISCTGTISDVGGYNYVSWYQQHPGKAPKLMIYDVTKRPSGVPDRFSGSKSGNTASLTISGLQAEDEAGYYCSSYAGSYTWVFGGGTELTVL
# B14: YU100-F07 (scFv)
# scFv: QVQLVESGGGVVQPGRSLRLSCAASGFTFSSYAMHWVRQAPGKGLEWVAVISYDGSNKYYADSVKGRFTISRDNSKNTLYLQMNSLRAEDTAVYYCARIMGYDYGDYDVVDYWGQGTLVTVSSGSASAPKLEEGEFSEARVQSALTQPRSVSVSPGQSVTISCTGTSSDVGGYEYVSWYQQHPGKAPKLMIYDVTKRPSGVPDRFSGSKSGNTASLTISGLQGEDAADYYCCSYAGSYTWVFGGGTTVTVL
# B15: YU100-H04 (scFv)
# scFv: QVQLVESGGGVVQPGRSLRLSCAASGFTFSSYAMHWVRQAPGKGLEWVAVISYDGSNKYYADSVKGRFTISRDNSKNTLYLQMNSLRAEDTAVYYCARIMGYDYGDYDVVDYWGQGTLVTVSSGSASAPKLEEGEFSEARVQSALTQPASVSGSPGQSITISCTGTSSDIGVYNYVSWYQQHPGKAPKLMIYDVSKRPSGVPDRFSGSKSGNTASLTISGLQAEDEADYYCCSYAGSYTWVFGGGTKLTVL
# B16: YU100-E08 (scFv)
# scFv: QVQLVQSGGGVVQPGRSLRLSCAASGFTFSSYAMHWVRQAPGKGLEWVAVISYDGSNKYYADSVKGRFTISRDNSKNTLYLQMNSLRAEDTAVYYCARIMGYDYGDYDVVDYWGQGTLVTVSSGSASAPKLEEGEFSEARVQSALTQPRSVSGSPGQSVTISCTGTSSDVGGYNYVSWYQQHPGKAPKLMIYDVSRRPSGVPDRFSGSKSGNTASLTISGLQAEDEADYYCCSYAGNYTWMFGGGTKLTVL
# Molecular target: T1, human IL-11 (human, UniProt P20809 22-199)
# T1 sequence (looked up): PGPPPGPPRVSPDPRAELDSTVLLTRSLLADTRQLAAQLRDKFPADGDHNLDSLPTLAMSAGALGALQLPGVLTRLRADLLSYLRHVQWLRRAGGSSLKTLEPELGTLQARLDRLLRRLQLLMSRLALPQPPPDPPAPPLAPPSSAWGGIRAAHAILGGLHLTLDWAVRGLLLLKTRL
# Assay: cell-based or functional assay
# Further: test concentration or dose not given here.
Binder,"MMP2 production (ng/ml), TGFB1-stimulated human atrial fibroblasts, Experiment 1 (NEG 42.7, POS 70.2)","MMP2 production (ng/ml), TGFB1-stimulated human atrial fibroblasts, Experiment 2 (NEG 36.2, POS 62.3)"
B1,54 ng/mL,45.4 ng/mL
B2,53.9 ng/mL,48.5 ng/mL
B3,52.8 ng/mL,39.9 ng/mL
B4,57.6 ng/mL,53.3 ng/mL
B5,49.7 ng/mL,43.9 ng/mL
B6,59 ng/mL,49.7 ng/mL
B7,50.3 ng/mL,42.5 ng/mL
B8,55 ng/mL,47.8 ng/mL
B9,49.1 ng/mL,41.9 ng/mL
B10,52.9 ng/mL,39.6 ng/mL
B11,57.5 ng/mL,51.3 ng/mL
B12,51.7 ng/mL,44.4 ng/mL
B13,55.2 ng/mL,50.1 ng/mL
B14,53.1 ng/mL,46.6 ng/mL
B15,58.5 ng/mL,48.7 ng/mL
B16,48.2 ng/mL,59.7 ng/mL

# Reference: patent US20180186871A1 (SINGAPORE HEALTH SERVICES PTE, published 2018)
